Consider 39 variants from the RNAGym collection of RNA variant scans (doi:10.7554/elife.80360).

B1: CPEB3 Ribozyme (parent)
chain: GGGGGCCACAGCAGAAGCGUUCACGUCGCGGCCCCUGUCAGAUUCUGGUGAAUCUGCGAAUUCUGCUGU

Variants of B1 are the subject of the data set. Put plainly: self-cleavage, relative activity (ratio to wild type); higher = more cleavage; co-transcriptional.
For GGGGGCCACAGCAGAAGCGUUCAGGUCGCGGCCCCUGUCAGAUUCUGGUGUAUCUGCGAAUUCUGCUGU [C24G A51U], the self-cleavage amounted to 0.353.
Regarding GGGGGCCACAGCAGAAGCGUUCAGGUCGCGGCCCCUGUCAGAUUCUGGUGAAUCUGCGAAUUCUGCGGU [C24G U67G], the self-cleavage amounted to 0.508.
Next, GGGGGCCACAGCAGAAGCGUUCAGGUCGCGGCCCCUGUCAGAUUCUGGUGAAUCUGCGAAUUCUGCCGU [C24G U67C]: 0.522; GGGGGCCACAGCAGAAGCGUUCAUGUCGCGGCCCCUGUCCGAUUCUGGUGAAUCUGCGAAUUCUGCUGU [C24U A40C]: 0.228.
Take GGGGGCCACAGCAGAAGCGUUCAGGUCGCGGCCCCUGUCAGAUUCUGGGGAAUCUGCGAAUUCUGCUGU [C24G U49G]: the self-cleavage stood at 0.565.
As for GGGGGCCACAGCAGAAGCGUUCAGGUCGCGGCCCCUGUCAGAUUCUGGAGAAUCUGCGAAUUCUGCUGU [C24G U49A], the figure is 0.59; as for GGGGGCCACAGCAGAAGCGUUCAUGUCGCGGCCCCUGUCAGAUUCUGGUGUAUCUGCGAAUUCUGCUGU [C24U A51U], 0.785; as for GGGGGCCACAGCAGAAGCGUUCAUGUCGCGGCCCCUGUCAGAUUCUGGUGGAUCUGCGAAUUCUGCUGU [C24U A51G], 0.774.
Next, GGGGGCCACAGCAGAAGCGUUCAUGUCGCGGCCCCUGUCAGAUUCUGGUGAAUGUGCGAAUUCUGCUGU [C24U C54G]: 0.586; GGGGGCCACAGCAGAAGCGUUCAGGUCGCGGCCCCUGUCAGAUUCUGGUGAAUCUGCGAGUUCUGCUGU [C24G A60G]: 0.264.
Turning to GGGGGCCACAGCAGAAGCGUUCAGGUCGCGUCCCCUGUCAGAUUCUGGUGAAUCUGCGAAUUCUGCUGU [C24G G31U], the self-cleavage amounted to 0.215.
Next, GGGGGCCACAGCAGAAGCGUUCAGGUCGCGGCCCCUGUCAGAUGCUGGUGAAUCUGCGAAUUCUGCUGU [C24G U44G]: 0.308.
GGGGGCCACAGCAGAAGCGUUCAAGUCGCGGCCCCUGUCAGAUUCUGGUGAAUCUGCGAAUUCUGCCGU [C24A U67C]: the self-cleavage is 0.713.
Regarding GGGGGCCACAGCAGAAGCGUUCAAGUCGCGGCCCCUGUCAGAUUCUGGUGAAUCUGCGAAUUCUGCUGC [C24A U69C], the self-cleavage amounted to 0.972.
For GGGGGCCACAGCAGAAGCGUUCAAGUCGCGGCCCCUGUCAGACUCUGGUGAAUCUGCGAAUUCUGCUGU [C24A U43C], the self-cleavage was determined as 0.631.
Turning to GGGGGCCACAGCAGAAGCGUUCAGUUCGCGGCCCCUGUCAGAUUCUGGUGAAUCUGCGAAUUCUGCUGU [C24G G25U], the self-cleavage was 0.104.
As for GGGGGCCACAGCAGAAGCGUUCAGGUCGCGGCCCCUGUCAGAUUCUGGUGAAUCUGCGAAUUCUUCUGU [C24G G65U], the figure is 0.243.
Consider GGGGGCCACAGCAGAAGCGUUCAGGUCGCGGCCCCUGUCAGAUUCUGGUGAAUCUGCGAAUUCUCCUGU [C24G G65C], for which the self-cleavage stood at 0.242.
As for GGGGGCCACAGCAGAAGCGUUCAUGUCGCGGCCCCUGUCAGCUUCUGGUGAAUCUGCGAAUUCUGCUGU [C24U A42C], the figure is 0.673; as for GGGGGCCACAGCAGAAGCGUUCAGGUCGCGGCCCCUGUGAGAUUCUGGUGAAUCUGCGAAUUCUGCUGU [C24G C39G], 0.324.
Next, GGGGGCCACAGCAGAAGCGUUCAGGUCGCGGCCCCUGUAAGAUUCUGGUGAAUCUGCGAAUUCUGCUGU [C24G C39A]: 0.214; GGGGGCCACAGCAGAAGCGUUCAUGUCGCGGCCCCUGUUAGAUUCUGGUGAAUCUGCGAAUUCUGCUGU [C24U C39U]: 0.549.
With GGGGGCCACAGCAGAAGCGUUCAUGUCGCGGCCCCUGUGAGAUUCUGGUGAAUCUGCGAAUUCUGCUGU [C24U C39G], the self-cleavage turned out to be 0.619.
GGGGGCCACAGCAGAAGCGUUCAUGUCGCGGCCCCUGUAAGAUUCUGGUGAAUCUGCGAAUUCUGCUGU [C24U C39A]: the self-cleavage was 0.315.
Next, GGGGGCCACAGCAGAAGCGUUCAUGUCGCGGUCCCUGUCAGAUUCUGGUGAAUCUGCGAAUUCUGCUGU [C24U C32U]: 0.805.
Next, GGGGGCCACAGCAGAAGCGUUCAGGUCGCGGCCCCUUUCAGAUUCUGGUGAAUCUGCGAAUUCUGCUGU [C24G G37U]: 0.278; GGGGGCCACAGCAGAAGCGUUCAGGUCGCGGCCCCUGUCAGAUUCUCGUGAAUCUGCGAAUUCUGCUGU [C24G G47C]: 0.502; GGGGGCCACAGCAGAAGCGUUCAGGUCGCGGCCCCUGACAGAUUCUGGUGAAUCUGCGAAUUCUGCUGU [C24G U38A]: 0.177.
GGGGGCCACAGCAGAAGCGUUCAUGUCGCGGCCCCUGUCAGAUUCUGGUGAGUCUGCGAAUUCUGCUGU [C24U A52G]: the self-cleavage is 0.819.
Next, GGGGGCCACAGCAGAAGCGUUCAUGUCGCGGCCCCUGUCAGAUUCUGGUGAUUCUGCGAAUUCUGCUGU [C24U A52U]: 0.81; GGGGGCCACAGCAGAAGCGUUCAGGUCGCGGCCCCUGUCAGAUUCUGGUGAAUCUGCGAAUUCUGCUGG [C24G U69G]: 0.63; GGGGGCCACAGCAGAAGCGUUCAGGUCGCGGCCCCUGUCAGAUUCUGGUGAAUCUGCGAAUUCUGCUGA [C24G U69A]: 0.509.
For the variant GGGGGCCACAGCAGAAGCGUUCAGGUCGCGGCCCCUGUCAGCUUCUGGUGAAUCUGCGAAUUCUGCUGU [C24G A42C], the self-cleavage amounted to 0.385.
Consider GGGGGCCACAGCAGAAGCGUUCAGGUCGCGGCCCCUGUCAGAUUCUGGUGAUUCUGCGAAUUCUGCUGU [C24G A52U], for which the self-cleavage was found to be 0.409.
With GGGGGCCACAGCAGAAGCGUUCAGGUCGCGGCCCCUGUCAGAUUCUGGUGACUCUGCGAAUUCUGCUGU [C24G A52C], the self-cleavage is 0.391.
For GGGGGCCACAGCAGAAGCGUUCAGGUCGCGGCCCCUGUCAGAUUCUGGUGAAUCUGCGAAUUCAGCUGU [C24G U64A], the self-cleavage worked out at 0.325.
As for GGGGGCCACAGCAGAAGCGUUCAAGUCGCGGCCCCUGUCAGAUUCUGGUGAAUCUGCGAAUGCUGCUGU [C24A U62G], the figure is 0.425; as for GGGGGCCACAGCAGAAGCGUUCAAGUCGCGGCCCCUGUCAGAUUCUGGUGAAUCAGCGAAUUCUGCUGU [C24A U55A], 0.617; as for GGGGGCCACAGCAGAAGCGUUCAAGUCGCGGCCCCUGUCAGAUUCUGGUGAAUCCGCGAAUUCUGCUGU [C24A U55C], 0.434.
